Test results taken from paper PMC10786891, “Massively parallel profiling of RNA-targeting CRISPR-Cas13d”.

T1: EsCas13d, nuclease-dead (Eubacterium siraeum, UniProt B0MS50, R295A;H300A;R849A;H854A)
T1 sequence: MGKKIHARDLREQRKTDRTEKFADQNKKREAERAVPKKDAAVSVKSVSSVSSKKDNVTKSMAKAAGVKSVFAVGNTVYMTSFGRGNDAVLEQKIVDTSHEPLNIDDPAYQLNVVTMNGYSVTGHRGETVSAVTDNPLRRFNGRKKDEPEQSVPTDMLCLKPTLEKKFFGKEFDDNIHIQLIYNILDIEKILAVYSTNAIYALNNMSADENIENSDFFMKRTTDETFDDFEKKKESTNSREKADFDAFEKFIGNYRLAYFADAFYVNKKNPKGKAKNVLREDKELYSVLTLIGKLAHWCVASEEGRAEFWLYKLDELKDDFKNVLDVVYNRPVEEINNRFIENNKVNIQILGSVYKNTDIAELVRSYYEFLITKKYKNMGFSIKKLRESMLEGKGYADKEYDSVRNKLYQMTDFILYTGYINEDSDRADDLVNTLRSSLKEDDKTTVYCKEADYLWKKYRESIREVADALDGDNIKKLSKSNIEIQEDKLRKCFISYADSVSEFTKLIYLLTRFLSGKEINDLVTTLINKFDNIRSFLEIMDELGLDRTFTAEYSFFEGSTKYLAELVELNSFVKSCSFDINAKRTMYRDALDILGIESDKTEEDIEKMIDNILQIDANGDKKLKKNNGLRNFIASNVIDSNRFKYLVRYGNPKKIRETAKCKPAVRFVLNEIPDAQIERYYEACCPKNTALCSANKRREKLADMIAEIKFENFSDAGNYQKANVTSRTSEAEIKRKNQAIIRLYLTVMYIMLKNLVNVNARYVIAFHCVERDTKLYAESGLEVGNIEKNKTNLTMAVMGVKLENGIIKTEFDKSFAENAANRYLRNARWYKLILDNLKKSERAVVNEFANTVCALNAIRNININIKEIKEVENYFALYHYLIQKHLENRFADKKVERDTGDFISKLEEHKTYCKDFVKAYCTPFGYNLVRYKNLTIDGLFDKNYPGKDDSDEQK


Target: T1, EsCas13d, nuclease-dead
Assay: crRNA (strand 1, pre-loaded); Mg2+; 40 mM Tris-HCl pH 7.5, 150 mM NaCl, 6 mM MgCl2, 1 mM DTT, 0.1% Tween-20, 0.2 mg/ml BSA; 25 C; 10 min per concentration, then washed
Settings: tags: His6-TwinStrep-SUMO cleaved; N-terminal SNAP kept (SNAP-Surface 488); label: 3' end held by stalled T7 RNA polymerase

| Binder | Kd |
| --- | --- |
| target 1 C2U,A9U (mixed) RNA 1: CACCCGUGCAAAAAUGCAGGGGUCUAAAACUGAGCGGAUAACCUCUCUAUGG RNA 2: GGGAAUGGAUCCACAUCUACGAAUUCGUACCAUAGAGAGGUUUUCCGCUUACCGAGAUCGGAAGAGCACACGU | 8.5 ± 0.7 nM |
| target 1 C7A,A18G (mixed) RNA 1: CACCCGUGCAAAAAUGCAGGGGUCUAAAACUGAGCGGAUAACCUCUCUAUGG RNA 2: GGGAAUGGAUCCACAUCUACGAAUUCGUACCAUGGAGAGGUUAUACGCUCACCGAGAUCGGAAGAGCACACGU | 50 ± 8 nM |
| target 1 insG 3' of 18,insU 3' of 17 (mixed) RNA 1: CACCCGUGCAAAAAUGCAGGGGUCUAAAACUGAGCGGAUAACCUCUCUAUGG RNA 2: GGGAAUGGAUCCACAUCUACGAAUUCGUACCAUAGGUAGAGGUUAUCCGCUCACCGAGAUCGGAAGAGCACACGU | 30.3 ± 2.6 nM |
| target 1 A9C,G15U (mixed) RNA 1: CACCCGUGCAAAAAUGCAGGGGUCUAAAACUGAGCGGAUAACCUCUCUAUGG RNA 2: GGGAAUGGAUCCACAUCUACGAAUUCGUACCAUAGAUAGGUUCUCCGCUCACCGAGAUCGGAAGAGCACACGU | ~70 nM |
| target 2 MT 5'PFS GGC 3'PFS ACG (mixed) RNA 1: CACCCGUGCAAAAUUGCAGGGGUCUAAAACCUUCUCCAAAUUGUUUCAUCCU RNA 2: GGGAAUGGAUCCACAUCUACGAAUUCGGCAGGAUGAAACAAUUUGGAGAAGACGAGAUCGGAAGAGCACACGU | 15.8 ± 1.1 nM |
| target 2 MT 5'PFS ACU 3'PFS UAG (mixed) RNA 1: CACCCGUGCAAAAUUGCAGGGGUCUAAAACCUUCUCCAAAUUGUUUCAUCCU RNA 2: GGGAAUGGAUCCACAUCUACGAAUUCACUAGGAUGAAACAAUUUGGAGAAGUAGAGAUCGGAAGAGCACACGU | 3.5 ± 0.4 nM |
| target 2 MT 5'PFS AUG 3'PFS CUA (mixed) RNA 1: CACCCGUGCAAAAUUGCAGGGGUCUAAAACCUUCUCCAAAUUGUUUCAUCCU RNA 2: GGGAAUGGAUCCACAUCUACGAAUUCAUGAGGAUGAAACAAUUUGGAGAAGCUAAGAUCGGAAGAGCACACGU | 7.5 ± 0.9 nM |
| target 2 MT 5'PFS CAC 3'PFS AAC (mixed) RNA 1: CACCCGUGCAAAAUUGCAGGGGUCUAAAACCUUCUCCAAAUUGUUUCAUCCU RNA 2: GGGAAUGGAUCCACAUCUACGAAUUCCACAGGAUGAAACAAUUUGGAGAAGAACAGAUCGGAAGAGCACACGU | 1.98 ± 0.3 nM |
| target 2 MT 5'PFS AUC 3'PFS AGA (mixed) RNA 1: CACCCGUGCAAAAUUGCAGGGGUCUAAAACCUUCUCCAAAUUGUUUCAUCCU RNA 2: GGGAAUGGAUCCACAUCUACGAAUUCAUCAGGAUGAAACAAUUUGGAGAAGAGAAGAUCGGAAGAGCACACGU | ~80 nM |
| target 2 MT 5'PFS ACC 3'PFS AAA (mixed) RNA 1: CACCCGUGCAAAAUUGCAGGGGUCUAAAACCUUCUCCAAAUUGUUUCAUCCU RNA 2: GGGAAUGGAUCCACAUCUACGAAUUCACCAGGAUGAAACAAUUUGGAGAAGAAAAGAUCGGAAGAGCACACGU | 9.3 ± 2.7 nM |
| target 2 MT 5'PFS UCG 3'PFS AUC (mixed) RNA 1: CACCCGUGCAAAAUUGCAGGGGUCUAAAACCUUCUCCAAAUUGUUUCAUCCU RNA 2: GGGAAUGGAUCCACAUCUACGAAUUCUCGAGGAUGAAACAAUUUGGAGAAGAUCAGAUCGGAAGAGCACACGU | ~70 nM |
| target 2 MT 5'PFS AUG 3'PFS CUU (mixed) RNA 1: CACCCGUGCAAAAUUGCAGGGGUCUAAAACCUUCUCCAAAUUGUUUCAUCCU RNA 2: GGGAAUGGAUCCACAUCUACGAAUUCAUGAGGAUGAAACAAUUUGGAGAAGCUUAGAUCGGAAGAGCACACGU | 15.4 ± 2.9 nM |
| target 2 MT 5'PFS UCG 3'PFS UGU (mixed) RNA 1: CACCCGUGCAAAAUUGCAGGGGUCUAAAACCUUCUCCAAAUUGUUUCAUCCU RNA 2: GGGAAUGGAUCCACAUCUACGAAUUCUCGAGGAUGAAACAAUUUGGAGAAGUGUAGAUCGGAAGAGCACACGU | ~120 nM |
| target 2 MT 5'PFS ACC 3'PFS AAC (mixed) RNA 1: CACCCGUGCAAAAUUGCAGGGGUCUAAAACCUUCUCCAAAUUGUUUCAUCCU RNA 2: GGGAAUGGAUCCACAUCUACGAAUUCACCAGGAUGAAACAAUUUGGAGAAGAACAGAUCGGAAGAGCACACGU | 10.5 ± 3.1 nM |
| target 2 MT 5'PFS ACU 3'PFS UAA (mixed) RNA 1: CACCCGUGCAAAAUUGCAGGGGUCUAAAACCUUCUCCAAAUUGUUUCAUCCU RNA 2: GGGAAUGGAUCCACAUCUACGAAUUCACUAGGAUGAAACAAUUUGGAGAAGUAAAGAUCGGAAGAGCACACGU | 4 ± 0.9 nM |
| target 2 MT 5'PFS GCU 3'PFS CGA (mixed) RNA 1: CACCCGUGCAAAAUUGCAGGGGUCUAAAACCUUCUCCAAAUUGUUUCAUCCU RNA 2: GGGAAUGGAUCCACAUCUACGAAUUCGCUAGGAUGAAACAAUUUGGAGAAGCGAAGAUCGGAAGAGCACACGU | 23 ± 5 nM |
| target 2 MT 5'PFS ACG 3'PFS AAG (mixed) RNA 1: CACCCGUGCAAAAUUGCAGGGGUCUAAAACCUUCUCCAAAUUGUUUCAUCCU RNA 2: GGGAAUGGAUCCACAUCUACGAAUUCACGAGGAUGAAACAAUUUGGAGAAGAAGAGAUCGGAAGAGCACACGU | 9.8 ± 1.8 nM |
| target 2 MT 5'PFS CAC 3'PFS AAA (mixed) RNA 1: CACCCGUGCAAAAUUGCAGGGGUCUAAAACCUUCUCCAAAUUGUUUCAUCCU RNA 2: GGGAAUGGAUCCACAUCUACGAAUUCCACAGGAUGAAACAAUUUGGAGAAGAAAAGAUCGGAAGAGCACACGU | 1.71 ± 0.3 nM |
| target 2 MT 5'PFS ACU 3'PFS UAC (mixed) RNA 1: CACCCGUGCAAAAUUGCAGGGGUCUAAAACCUUCUCCAAAUUGUUUCAUCCU RNA 2: GGGAAUGGAUCCACAUCUACGAAUUCACUAGGAUGAAACAAUUUGGAGAAGUACAGAUCGGAAGAGCACACGU | 6.2 ± 0.9 nM |
| target 2 MT 5'PFS GGC 3'PFS ACA (mixed) RNA 1: CACCCGUGCAAAAUUGCAGGGGUCUAAAACCUUCUCCAAAUUGUUUCAUCCU RNA 2: GGGAAUGGAUCCACAUCUACGAAUUCGGCAGGAUGAAACAAUUUGGAGAAGACAAGAUCGGAAGAGCACACGU | 18 ± 4 nM |
| target 2 MT 5'PFS UCG 3'PFS AUA (mixed) RNA 1: CACCCGUGCAAAAUUGCAGGGGUCUAAAACCUUCUCCAAAUUGUUUCAUCCU RNA 2: GGGAAUGGAUCCACAUCUACGAAUUCUCGAGGAUGAAACAAUUUGGAGAAGAUAAGAUCGGAAGAGCACACGU | 29 ± 9 nM |
| target 2 MT 5'PFS ACG 3'PFS AAU (mixed) RNA 1: CACCCGUGCAAAAUUGCAGGGGUCUAAAACCUUCUCCAAAUUGUUUCAUCCU RNA 2: GGGAAUGGAUCCACAUCUACGAAUUCACGAGGAUGAAACAAUUUGGAGAAGAAUAGAUCGGAAGAGCACACGU | 5.4 ± 1.3 nM |
| target 2 MT 5'PFS ACG 3'PFS AAC (mixed) RNA 1: CACCCGUGCAAAAUUGCAGGGGUCUAAAACCUUCUCCAAAUUGUUUCAUCCU RNA 2: GGGAAUGGAUCCACAUCUACGAAUUCACGAGGAUGAAACAAUUUGGAGAAGAACAGAUCGGAAGAGCACACGU | 5.5 ± 1.2 nM |
| target 2 MT 5'PFS AUG 3'PFS CUC (mixed) RNA 1: CACCCGUGCAAAAUUGCAGGGGUCUAAAACCUUCUCCAAAUUGUUUCAUCCU RNA 2: GGGAAUGGAUCCACAUCUACGAAUUCAUGAGGAUGAAACAAUUUGGAGAAGCUCAGAUCGGAAGAGCACACGU | 16 ± 5 nM |
| target 2 MT 5'PFS ACC 3'PFS AAU (mixed) RNA 1: CACCCGUGCAAAAUUGCAGGGGUCUAAAACCUUCUCCAAAUUGUUUCAUCCU RNA 2: GGGAAUGGAUCCACAUCUACGAAUUCACCAGGAUGAAACAAUUUGGAGAAGAAUAGAUCGGAAGAGCACACGU | 8 ± 1.2 nM |
| target 2 MT 5'PFS AUC 3'PFS AGC (mixed) RNA 1: CACCCGUGCAAAAUUGCAGGGGUCUAAAACCUUCUCCAAAUUGUUUCAUCCU RNA 2: GGGAAUGGAUCCACAUCUACGAAUUCAUCAGGAUGAAACAAUUUGGAGAAGAGCAGAUCGGAAGAGCACACGU | 21 ± 8 nM |
| target 2 MT 5'PFS GCU 3'PFS CGG (mixed) RNA 1: CACCCGUGCAAAAUUGCAGGGGUCUAAAACCUUCUCCAAAUUGUUUCAUCCU RNA 2: GGGAAUGGAUCCACAUCUACGAAUUCGCUAGGAUGAAACAAUUUGGAGAAGCGGAGAUCGGAAGAGCACACGU | 19 ± 4 nM |
| target 2 MT 5'PFS ACU 3'PFS UAU (mixed) RNA 1: CACCCGUGCAAAAUUGCAGGGGUCUAAAACCUUCUCCAAAUUGUUUCAUCCU RNA 2: GGGAAUGGAUCCACAUCUACGAAUUCACUAGGAUGAAACAAUUUGGAGAAGUAUAGAUCGGAAGAGCACACGU | 3.8 ± 0.6 nM |
